In test [1] the test system is MALM-3M human melanoma cell line xenograft. Put plainly: Xenograft tumor growth inhibition, MALM-3M. It counts as in vivo, athymic nude mice. As for the experimental part:
Briefly described, c-Kit-dependent human cancer cell lines are expanded in culture and then are injected subcutaneously into the rear flank of athymic nude mice (Charles River, Wilmington, Mass.) with 2-10 million cells per mouse. Anti-c-Kit mAbs are diluted in PBS, pH 7.2, and administered by intravenous injection at 4 or 40 mg/kg. […] Furthermore, treatment groups may include appropriate chemotherapy drugs or approved RTK inhibitors alone or in combination with the antibodies of the present invention. Antibodies and saline control are administered three times per week for four weeks Inhibition of tumor cell growth is determined by three dimensional caliper measurement of tumor volume twice weekly during the course of treatment. Tumor volume may be calculated as follows: Tumor volume(mm^3)=(length of the tumor)(width^2 of the tumor)(π/6), where the length of the tumor is the largest dimension of the tumor parallel to the skin surface and the width is the largest measurement perpendicular to the length, parallel to the skin surface. Body weight may also be measured frequently during the course of treatment as a general measurement of toxicity. T/C %, and P values are calculated by RM ANOVA where, T/C %=[(Treatment Volume/Initial Volume)/(Control Volume/Initial Volume)]*100 and the P value is calculated in relation to saline.

In another test the target is T1, c-Kit in GIST882 cells (Homo sapiens, UniProt P10721, K642E).
T1 construct: endogenous in cells; host or cells: GIST882 (human gastrointestinal stromal tumor)
T1 sequence (P10721 26-976 K642E): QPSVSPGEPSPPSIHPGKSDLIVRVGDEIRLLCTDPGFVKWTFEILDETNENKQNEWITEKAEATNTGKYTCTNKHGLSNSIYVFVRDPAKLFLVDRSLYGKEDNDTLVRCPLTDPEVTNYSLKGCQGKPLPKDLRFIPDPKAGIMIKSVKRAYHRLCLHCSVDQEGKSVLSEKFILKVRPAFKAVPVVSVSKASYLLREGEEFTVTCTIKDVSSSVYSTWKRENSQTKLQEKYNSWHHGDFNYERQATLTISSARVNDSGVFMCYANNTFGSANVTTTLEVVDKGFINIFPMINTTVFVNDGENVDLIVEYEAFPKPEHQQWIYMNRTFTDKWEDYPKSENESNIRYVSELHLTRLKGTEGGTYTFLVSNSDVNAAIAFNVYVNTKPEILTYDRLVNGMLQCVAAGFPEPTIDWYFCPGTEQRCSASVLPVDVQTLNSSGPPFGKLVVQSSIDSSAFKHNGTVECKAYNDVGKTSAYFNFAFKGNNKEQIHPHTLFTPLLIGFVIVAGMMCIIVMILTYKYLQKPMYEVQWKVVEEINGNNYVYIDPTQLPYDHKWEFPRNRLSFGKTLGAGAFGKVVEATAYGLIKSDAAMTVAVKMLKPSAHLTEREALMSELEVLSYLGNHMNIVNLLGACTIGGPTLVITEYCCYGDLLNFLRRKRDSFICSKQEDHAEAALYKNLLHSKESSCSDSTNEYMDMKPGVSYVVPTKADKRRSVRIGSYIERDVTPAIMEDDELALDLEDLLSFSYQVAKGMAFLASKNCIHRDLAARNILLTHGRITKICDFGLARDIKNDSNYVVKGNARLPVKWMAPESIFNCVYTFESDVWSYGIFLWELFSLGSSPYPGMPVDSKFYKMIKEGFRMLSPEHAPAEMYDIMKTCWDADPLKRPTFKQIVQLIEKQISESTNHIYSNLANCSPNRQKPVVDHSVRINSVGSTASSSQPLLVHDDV
The test is described as follows: In vitro c-Kit degradation assay (Example 7, western blot), GIST882. The class given is cell-based. The following applies: SCF 100 ng/ml, 12, 24, and 48 hours at 37° C., data not shown. (In general: Immunoblotting shows a protein as a band on a membrane.)

In test [2] the target is T2, c-Kit in Mo7e cells (Homo sapiens, UniProt P10721).
T2 construct: endogenous in cells; host or cells: Mo7e (human megakaryocytic leukemia)
T2 sequence (P10721 26-976): as the sequence (P10721 26-976 K642E) above, with E617K counted along it
Put plainly: In vitro c-Kit degradation assay (Example 7, western blot), Mo7e. It counts as cell-based. Conditions: SCF 100 ng/ml, 12, 24, and 48 hours at 37° C., data not shown. As for the experimental part:
An in vitro cell based assay may be used to measure the ability of c-Kit mAbs to induce degradation of c-Kit as measured by the amount of total c-Kit found in cell lysates after treating tumor cells with a c-Kit mAb at 37° C. Briefly, human cell lines expressing c-Kit (e.g., Mo7e and GIST882) are plated in a 6-well dish at a density of 3×10^6 cells/ml in 3 ml of serum-free media. […] One well of cells is left untreated as a control. Immediately after the treatment period, the cells are washed in cold PBS, lysed in 100 μl lysis buffer (50 mM Hepes pH 7.5, 150 mM NaCl, 10 mM NaPPi, 50 mM NaF, 1 mM Na3VO4, 1% Triton X-100, protease inhibitor cocktail). After a ten minute incubation on ice, the cells are centrifuged at 12,000 g for 15 minutes at 4° C. The supernatant is collected and subjected to western blot analysis under reducing conditions. […] As expected from previous reports in the scientific literature,
degradation of c-Kit was not observed after treatment of the tumor cells with SCF (100 ng/ml) for 12, 24, and 48 hours at 37° C. (data not shown).

For test [3], the target named is T2, c-Kit in Mo7e cells. The test is described as follows: In vitro c-Kit degradation assay (Example 7a, western blot), Mo7e. The class given is cell-based. As for the experimental part: Human cell lines expressing c-Kit (e.g., GIST882, Mo7e, and Malm-3M) are plated in a 6-well dish at a density of 3×10^6 cells/ml in 3 ml of serum-free media for all but one Mo7e assay that uses 10% serum. […] One well of cells is left untreated as a control. Immediately after the treatment period, the cells are washed in cold PBS, lysed in 100 μl lysis buffer (50 mM Hepes pH 7.5, 150 mM NaCl, 10 mM NaPPi, 50 mM NaF, 1 mM Na3VO4, 1% Triton X-100, protease inhibitor cocktail). After a ten minute incubation on ice, the cells are centrifuged at 12,000 g for 15 minutes at 4° C. The supernatant is collected and subjected to western blot analysis under reducing conditions. […] SCF induced degradation is not apparent when using 10% serum. (Replicates of GIST882=1, Mo7e=3, and Malm-3M=1).

As to `Cc1ccc(NC(=O)c2ccc(CN3CCN(C)CC3)cc2)cc1Nc1nccc(-c2cccnc2)n1` [Imatinib, imatinib, reference compound], the T/C % in test [1] (Table 13 lower part, Imatinib 100 mg/kg, P value 0.0001) is 61%.
With “SCF: c-Kit ligand stem cell factor (SCF) [reference compound]”, the “degradation of c-Kit, in words” value is on record as “not observed” with c-Kit in GIST882 cells; “not observed” in the test with c-Kit in Mo7e cells [2]; “Degradation of c-Kit is observed” in the test with c-Kit in Mo7e cells [3] (SCF 1 ug/ml and 100 ng/ml, 24 hours at 37° C., 0% serum); “not apparent” in the test with c-Kit in Mo7e cells [3] (SCF, 10% serum).
For the molecule `CCN(CC)CCNC(=O)c1c(C)[nH]c(/C=C2\C(=O)Nc3ccc(F)cc32)c1C` [Sunitinib, sunitinib, reference compound], the T/C % in test [1] (Table 13 lower part, Sunitinib 40 mg/kg, P value 0.0004) turned out to be 68%.
Regarding `CN(C)/N=N/c1[nH]cnc1C(N)=O` [DTIC, dacarbazine, reference compound], in test [1] (Table 13 upper part, DTIC 80 mg/kg, P value 0.0021), the T/C % was 68%.

Values taken from patent US8552157B2, “c-Kit antibodies and uses thereof” (ImClone LLC, priority 2011, dated 2013).
